Key:
Test in all cases: membrane protein array validation: flow cytometry on unfixed cells expressing the protein, serial dilutions in buffer with 10% human serum albumin, fluorescently labeled secondary antibody that binds ISVDs
MCAM = biological target: T1, MCAM (human, UniProt P43121 24-646)
T1 construct: whole, on cells; also called MUC18; cell surface glycoprotein MUC18

DCC = biological target: T2, DCC (human, UniProt P43146)
T2 construct: overexpressed on live cells from an expression plasmid; Tested in the validation titration of the membrane protein array

DSC1 = biological target: T3, DSC1
T3 construct: Tested in the validation titration of the membrane protein array
T3 chain: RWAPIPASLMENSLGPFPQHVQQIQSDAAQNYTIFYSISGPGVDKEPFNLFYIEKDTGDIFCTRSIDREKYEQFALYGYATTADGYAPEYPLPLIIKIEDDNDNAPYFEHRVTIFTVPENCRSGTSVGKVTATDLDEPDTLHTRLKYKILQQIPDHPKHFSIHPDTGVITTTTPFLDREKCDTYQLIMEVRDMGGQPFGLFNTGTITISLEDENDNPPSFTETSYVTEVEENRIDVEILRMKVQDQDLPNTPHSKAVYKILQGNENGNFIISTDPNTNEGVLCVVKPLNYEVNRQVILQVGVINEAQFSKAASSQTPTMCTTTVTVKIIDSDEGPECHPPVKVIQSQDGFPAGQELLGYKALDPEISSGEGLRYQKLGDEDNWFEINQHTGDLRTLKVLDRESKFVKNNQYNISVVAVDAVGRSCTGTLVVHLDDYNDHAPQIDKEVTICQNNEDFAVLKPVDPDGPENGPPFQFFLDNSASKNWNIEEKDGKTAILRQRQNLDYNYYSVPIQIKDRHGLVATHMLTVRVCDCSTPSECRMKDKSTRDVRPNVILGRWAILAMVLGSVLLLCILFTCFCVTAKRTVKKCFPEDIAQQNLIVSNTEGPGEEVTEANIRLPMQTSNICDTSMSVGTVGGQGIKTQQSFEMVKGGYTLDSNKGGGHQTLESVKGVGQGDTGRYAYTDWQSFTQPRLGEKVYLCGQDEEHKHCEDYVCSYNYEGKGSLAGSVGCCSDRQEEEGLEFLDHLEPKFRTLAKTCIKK

Measured: binding result

T2 sequence (P43146 26-1447 limits assumed): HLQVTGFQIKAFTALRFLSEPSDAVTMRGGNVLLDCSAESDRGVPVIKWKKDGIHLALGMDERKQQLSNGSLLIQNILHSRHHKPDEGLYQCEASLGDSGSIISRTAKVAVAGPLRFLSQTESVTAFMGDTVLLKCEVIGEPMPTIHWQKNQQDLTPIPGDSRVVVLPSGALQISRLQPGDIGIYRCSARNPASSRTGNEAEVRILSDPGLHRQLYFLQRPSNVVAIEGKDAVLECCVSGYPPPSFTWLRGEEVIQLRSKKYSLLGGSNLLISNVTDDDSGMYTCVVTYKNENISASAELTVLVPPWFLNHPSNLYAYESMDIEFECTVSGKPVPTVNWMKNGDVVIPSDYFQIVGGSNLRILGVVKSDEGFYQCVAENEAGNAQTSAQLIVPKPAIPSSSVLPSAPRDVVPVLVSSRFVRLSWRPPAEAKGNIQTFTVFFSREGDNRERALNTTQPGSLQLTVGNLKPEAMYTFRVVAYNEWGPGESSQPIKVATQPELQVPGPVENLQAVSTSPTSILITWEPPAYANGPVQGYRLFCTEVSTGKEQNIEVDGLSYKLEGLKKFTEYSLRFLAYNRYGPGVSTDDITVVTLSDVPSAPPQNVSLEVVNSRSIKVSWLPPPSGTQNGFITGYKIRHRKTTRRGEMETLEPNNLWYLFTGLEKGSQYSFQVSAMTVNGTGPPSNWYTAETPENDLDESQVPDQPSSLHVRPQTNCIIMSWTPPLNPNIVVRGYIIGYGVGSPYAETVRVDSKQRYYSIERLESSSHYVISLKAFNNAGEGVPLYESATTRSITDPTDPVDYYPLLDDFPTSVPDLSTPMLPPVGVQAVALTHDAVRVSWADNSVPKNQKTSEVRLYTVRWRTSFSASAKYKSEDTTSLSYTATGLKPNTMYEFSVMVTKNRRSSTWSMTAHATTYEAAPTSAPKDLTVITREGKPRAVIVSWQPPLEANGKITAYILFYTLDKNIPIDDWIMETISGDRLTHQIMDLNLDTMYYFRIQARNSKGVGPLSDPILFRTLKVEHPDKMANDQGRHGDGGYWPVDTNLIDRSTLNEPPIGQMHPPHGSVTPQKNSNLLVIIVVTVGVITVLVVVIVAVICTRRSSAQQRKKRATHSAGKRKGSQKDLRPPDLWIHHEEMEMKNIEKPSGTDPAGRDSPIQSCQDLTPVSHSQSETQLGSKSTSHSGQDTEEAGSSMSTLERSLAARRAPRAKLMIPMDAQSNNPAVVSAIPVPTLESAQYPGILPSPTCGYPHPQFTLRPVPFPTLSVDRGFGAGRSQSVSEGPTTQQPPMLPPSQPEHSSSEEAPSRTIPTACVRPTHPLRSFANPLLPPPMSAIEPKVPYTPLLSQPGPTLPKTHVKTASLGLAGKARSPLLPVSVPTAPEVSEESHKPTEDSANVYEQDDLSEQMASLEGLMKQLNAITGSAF

B1: A041600035 (VHH)
chain: DVQLVESGGGSVQPGGSLRLSCAASGSIFSSTAMAWYRQAPGKQRDLVAVISTVGITKYADSVKGRFTISRDNAKNTVYLQMNSLRPEDTALYYCTSDARRGWDTRYWGQGTLVTVSSGGGGSGGGSEVQLVESGGGSVQPGGSLRLSCAASGSIFSSTAMAWYRQAPGKQRDLVAVISTVGITKYADSVKGRFTISRDNAKNTVYLQMNSLRPEDTALYYCTSDARRGWDTRYWGQGTLVTVSSGGGGSGGGSEVQLVESGGGVVQPGGSLRLSCAASGFTFRSFGMSWVRQAPGKGPEWVSSISGSGSDTLYADSVKGRFTISRDNSKNTLYLQMNSLRPEDTALYYCTIGGSLSRSSQGTLVTVSSA
notes: Trivalent ISVD construct (two anti-CX3CR1 ISVDs, one anti-albumin ISVD), C-terminal alanine included in the entry; also called 54A12_SO (E1D)-9GS-54A12_SO-9GS-ALB23002-A
no binding (tested: 20 ug/ml): all assays above

Source: patent publication US20240117038A1 (Ablynx, published 2024)
